Measured values reported in patent US20060134122A1, “Peptides of syndecan-1 for inhibition of cancer” (priority 2004, published 2006).

Experiments:
[1] = tested on: MDA-MB-231 and MB-435 cells; assay: Migration across coated filters (modified Boyden chamber), MDA-MB-231 and MB-435; assay type: cell-based, human; conditions: S1ED pAb 250 μg/mL or GST-mS1ED 20 μM; 16 h
Description: (§1) FIGS. 5A-B—Sdc-1ED Inhibitors disrupt αvβ3 integrin-dependent cell migration on VN. MDA-MB-231, MDA-MB-435 and MCF-7 cells in plating medium alone (black-filled) or in plating medium containing either 20 μM GST-mS1ED (open) or 250 μg/mL polyclonal mS1ED antibodies (gray-filled) were seeded on polycarbonate filters coated with either 10 μg/ml of VN (FIG. 5A) or FN (FIG. 5B) in a modified Boyden chamber. After 16 h, cells that migrated through the filter in response to 10% FBS in the lower chamber were quantified by colorimetric staining.
(§2) To test the role of the S1ED in αvβ3 integrin dependent signaling in another functional assay, cells were examined for their ability to migrate across VN or FN-coated filters in the presence or absence of S1ED pAb (250 μg/mL) or GST-mS1ED recombinant protein (20 μM). Migration of treated MDA-MB-231 and MB-435 cells across VN is suppressed 2- to 4-fold relative to untreated controls (FIG. 5A). MCF-7 cell migration across VN, which is αvβ1 dependent, is unaffected by either treatment.

αvβ3 integrin [2] = molecular target: T1, αvβ3 integrin (Homo sapiens, UniProt P05106+P06756); assay: WOW1 Fab binding (activated αvβ3 integrin), MDA-MB-435; assay type: cell-based; conditions: cells adherent to mAb B-B4; 20 μM GST-mS1ED
T1 construct: endogenous in cells; host or cells: MDA-MB-435 (A4) and MDA-MB-231 (A5) human mammary carcinoma cells
T1 sequence (P06756 31-889 limits assumed): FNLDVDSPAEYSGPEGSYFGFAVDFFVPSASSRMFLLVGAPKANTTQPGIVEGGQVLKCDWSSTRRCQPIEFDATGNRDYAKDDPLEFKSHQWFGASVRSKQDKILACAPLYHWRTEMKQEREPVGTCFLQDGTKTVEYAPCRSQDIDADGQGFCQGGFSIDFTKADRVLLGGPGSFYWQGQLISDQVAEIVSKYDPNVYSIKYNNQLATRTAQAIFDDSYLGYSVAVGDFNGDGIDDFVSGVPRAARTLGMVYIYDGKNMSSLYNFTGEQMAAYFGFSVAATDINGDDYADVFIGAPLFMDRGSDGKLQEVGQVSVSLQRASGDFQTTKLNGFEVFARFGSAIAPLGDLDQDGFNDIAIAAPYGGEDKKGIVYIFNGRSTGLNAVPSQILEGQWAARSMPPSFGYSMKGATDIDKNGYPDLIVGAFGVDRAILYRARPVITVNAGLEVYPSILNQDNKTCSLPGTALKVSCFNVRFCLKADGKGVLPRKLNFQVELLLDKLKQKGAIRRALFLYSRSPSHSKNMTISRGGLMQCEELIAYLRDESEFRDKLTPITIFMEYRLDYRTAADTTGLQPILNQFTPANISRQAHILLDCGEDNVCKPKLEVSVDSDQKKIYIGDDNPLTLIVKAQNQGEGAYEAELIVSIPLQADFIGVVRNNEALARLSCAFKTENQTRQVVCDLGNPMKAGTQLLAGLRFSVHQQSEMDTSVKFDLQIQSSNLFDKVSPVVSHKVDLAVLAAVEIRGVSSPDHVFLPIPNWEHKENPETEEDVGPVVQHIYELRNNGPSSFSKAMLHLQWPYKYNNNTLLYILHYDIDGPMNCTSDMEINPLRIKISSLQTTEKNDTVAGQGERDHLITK
T1 sequence (P06756 891-1048 limits assumed): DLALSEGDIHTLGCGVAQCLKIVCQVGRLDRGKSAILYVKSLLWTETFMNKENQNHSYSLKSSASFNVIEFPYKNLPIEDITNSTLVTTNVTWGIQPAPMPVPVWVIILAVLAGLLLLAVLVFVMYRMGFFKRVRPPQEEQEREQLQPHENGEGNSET
T1 sequence (P05106 27-788): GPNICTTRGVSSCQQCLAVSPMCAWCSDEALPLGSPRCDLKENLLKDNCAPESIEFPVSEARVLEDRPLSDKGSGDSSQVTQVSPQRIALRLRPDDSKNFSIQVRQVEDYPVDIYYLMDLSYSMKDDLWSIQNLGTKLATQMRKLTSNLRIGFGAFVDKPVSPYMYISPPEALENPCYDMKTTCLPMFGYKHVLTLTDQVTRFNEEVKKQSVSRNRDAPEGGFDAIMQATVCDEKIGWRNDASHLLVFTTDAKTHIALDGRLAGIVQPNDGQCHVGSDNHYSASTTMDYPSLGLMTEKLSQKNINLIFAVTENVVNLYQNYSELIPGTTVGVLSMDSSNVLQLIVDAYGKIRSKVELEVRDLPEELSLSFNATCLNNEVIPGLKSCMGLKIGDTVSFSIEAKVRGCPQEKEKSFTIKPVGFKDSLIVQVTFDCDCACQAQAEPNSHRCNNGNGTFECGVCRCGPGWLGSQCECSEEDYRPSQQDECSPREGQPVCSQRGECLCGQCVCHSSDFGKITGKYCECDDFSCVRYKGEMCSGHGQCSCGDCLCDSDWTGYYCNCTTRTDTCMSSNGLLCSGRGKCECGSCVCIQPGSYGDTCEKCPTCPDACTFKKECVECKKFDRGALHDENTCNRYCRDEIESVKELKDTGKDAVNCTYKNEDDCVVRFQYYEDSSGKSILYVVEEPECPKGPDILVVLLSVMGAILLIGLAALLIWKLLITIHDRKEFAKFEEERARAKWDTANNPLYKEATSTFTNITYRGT
Description: (§3) FIGS. 2A-C—Sdc-1 adhesion-mediated cell spreading correlates with αvβ3 integrin. expression and activity. (FIG. 2A) FACS analysis of αvβ3 integrin expression (mAb LM609) in human mammary carcinoma cells against an IgG isotype control. (FIG. 2B) Depicted on split panels are phalloidin-stained MDA-MB-435 (upper half) and MCF-7 (lower half) cells 2 h after plating on wells coated with mAb B-B4 in plating medium alone or medium containing either 30 μg/mL mAb LM609, 1 μg/mL mAb 13 or 20 μM GST-mS1ED. Bar, 50 μm. (FIG. 2C) Untreated MDA-MB-435, MDA-MB-231 and MCF-7 cells (columns 1 and 4) and cells pretreated in suspension with 1 μg/mL mAb 13 (columns 2 and 3) were seeded on wells coated with either mAb B-B4 or COL I in plating medium alone (columns 1, 2 and 4) or medium containing 20 μM GST-mS1ED (column 3). Cells were incubated at 37° C. for 2 h, fixed, permeabilized and stained with WOW1 and an Alexa 488-conjugated secondary. Panel insets are corresponding phase contrast pictures. Bar, 20 μm.
(§4) To verify that cell spreading induced upon Sdc-1 ligation correlates with αvβ3activation, the inventors relied upon binding of the ligand-mimetic WOW1 mouse Fab—a probe that detects activated, but unligated αvβ3 integrin. MDA-MB-435 cells adherent to mAb B-B4 display strong binding of WOW1 both centrally and within puncta at the spreading margin of cells (FIG. 2C). […]

[3] = tested on: Human aortic endothelial cells (HAEC); assay: HAEC spreading on VN; assay type: cell-based; conditions: 1-10 uM GST-mS1ED
Description: FIG. 13—Human aortic endothelial cells rely on αvβ3 and αvβ5 integrins for spreading on VN. Human aortic endothelial cells (HAECs) were suspended and replated on 10 μg/ml VN in the presence of integrin inhibitory antibodies mAb 13 (specific for β1-containing integrins; this will inhibit the αvβ1 integrin), LM609 (specific for the αvβ3 integrin) and P1F6 (specific for the αvβ5 integrin), or combinations of these antibodies. After 2 hr, the cells were fixed, stained with Alexa488-conjugated phalloidin to aid in visualization, and observed by fluorescence microscopy to document integrin-dependent spreading. Inhibition of spreading requires simultaneous inhibition of both the αvβ3 and αvβ5 integrins.
FIG. 15—αvβ3 and αvβ5 integrin-mediated spreading of human aortic endothelial cells on VN is disrupted by recombinant syndecan-1 ectodomain fusion protein. HAECs are plated on VN in the presence of no competitor, 1-10 uM GST-mS1ED (recombinant mouse syndecan-1 ectodomain expressed as a fusion protein with GST) or GST alone.
FIG. 16—Inhibition of HAEC spreading on VN by silencing of Sdc-1. HAECs were transfected with a range of concentrations of siRNA specific for human Sdc1 (hS1), which achieves 80-88% silencing at 100-200 nM, as shown by flow cytometry using human Sdc-1 mAb B-B4. The cells treated with 200 nM siRNA were also plated on VN for 2 hr and display a 60% reduction in cell spreading. […]

[4] = molecular target: αvβ3 integrin (human, on MDA-MB-231, MDA-MB-435, HAEC and HMEC cells) (human) (UniProt P06756); assay: cell-based or functional assay
αvβ3 integrin (human, on MDA-MB-231, MDA-MB-435, HAEC and HMEC cells) (human), sequence (P06756 31-1048, chain 1 of 2): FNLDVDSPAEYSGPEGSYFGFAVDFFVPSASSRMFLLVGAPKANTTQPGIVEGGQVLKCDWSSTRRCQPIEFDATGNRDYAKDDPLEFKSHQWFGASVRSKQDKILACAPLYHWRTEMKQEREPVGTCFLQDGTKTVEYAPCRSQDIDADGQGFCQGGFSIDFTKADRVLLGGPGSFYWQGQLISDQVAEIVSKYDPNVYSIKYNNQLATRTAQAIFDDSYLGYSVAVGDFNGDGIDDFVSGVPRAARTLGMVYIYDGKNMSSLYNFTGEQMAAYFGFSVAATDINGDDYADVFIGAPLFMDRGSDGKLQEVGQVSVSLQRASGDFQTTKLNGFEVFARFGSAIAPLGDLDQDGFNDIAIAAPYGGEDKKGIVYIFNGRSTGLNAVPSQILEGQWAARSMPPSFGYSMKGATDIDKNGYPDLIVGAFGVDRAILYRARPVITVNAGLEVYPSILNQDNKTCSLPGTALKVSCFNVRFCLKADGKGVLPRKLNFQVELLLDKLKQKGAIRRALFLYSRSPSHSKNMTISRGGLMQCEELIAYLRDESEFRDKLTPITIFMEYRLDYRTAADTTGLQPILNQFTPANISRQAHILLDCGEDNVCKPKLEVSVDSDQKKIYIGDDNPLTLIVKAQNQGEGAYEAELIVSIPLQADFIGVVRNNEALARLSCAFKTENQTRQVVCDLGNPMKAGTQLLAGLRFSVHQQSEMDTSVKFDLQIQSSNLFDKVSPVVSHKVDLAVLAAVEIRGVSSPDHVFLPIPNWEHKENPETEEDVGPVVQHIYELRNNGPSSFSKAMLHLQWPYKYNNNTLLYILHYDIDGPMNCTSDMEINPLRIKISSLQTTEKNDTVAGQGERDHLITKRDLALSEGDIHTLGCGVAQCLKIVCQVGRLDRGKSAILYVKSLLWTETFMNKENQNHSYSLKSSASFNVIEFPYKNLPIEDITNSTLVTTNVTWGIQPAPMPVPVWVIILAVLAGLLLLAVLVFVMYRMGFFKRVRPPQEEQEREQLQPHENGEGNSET
αvβ3 integrin (human, on MDA-MB-231, MDA-MB-435, HAEC and HMEC cells) (human), sequence (P05106 27-788, chain 2 of 2, further chain): as the sequence (P05106 27-788) above

αvβ3 integrin [5] = molecular target: T1, αvβ3 integrin; assay: WOW1 Fab binding (activated αvβ3 integrin), MDA-MB-231; assay type: cell-based; conditions: cells adherent to mAb B-B4, pre-treated with 1 μg/mL mAb 13; GST-mS1ED 20 μM
Description: as §3, §4

MCF-7 cells = assay: Migration across coated filters (modified Boyden chamber), MCF-7; assay type: cell-based, human; conditions: S1ED pAb 250 μg/mL or GST-mS1ED 20 μM; 16 h
Description: as §1, §2

WOW1 binding (αvβ3 activation) (αvβ3 integrin [2]): WOW1 fails to bind | migration of MDA-MB-231 and MB-435 cells across VN, 20 µM GST-mS1ED [4]: 2 to 4 fold | WOW1 binding (αvβ3 activation) (αvβ3 integrin [5]): WOW1 staining is also lost
B1: GST-mS1ED: recombinant mouse syndecan-1 ectodomain expressed as a fusion protein with GST (protein)
chain: QIVAVNVPPEDQDGSGDDSDNFSGSGTGALPDTLSRQTPSTWKDVWLLTATPTAPEPTSSNTETAFTSVLPAGEKPEEGEPVLHVEAEPGFTARDKEKEVTTRPRETVQLPITQRASTVRVTTAQAAVTSHPHGGMQPGLHETSAPTAPGQPDHQPPRVEGGGTSVIKEVVEDGTANQLPAGEGSGEQDFTFETSGENTAVAAVEPGLRNQPPVDEGATGASQSLLDRKEVLG
modifications: left off: a dimerising Fc or GST
notes: recombinant mouse syndecan-1 ectodomain expressed as a fusion protein with GST
cell migration across FN [1]: neither inhibitor has any effect | αvβ3 and αvβ5 integrin-mediated spreading on VN [3]: disrupted | cell migration across FN (MCF-7 cells): neither inhibitor has any effect | cell migration across VN (MCF-7 cells): unaffected
